Publication PMC8537947, “Improved Radiolytic Stability of a ^68Ga-labelled Collagelin Analogue for the Imaging of Fibrosis” (Pharmaceuticals, 2021)
Bridge positions count the residues as written; N and C are the ends. Square brackets hold non-standard residues; d marks the D form. Peptide text beside a SMILES is read from it. * marks the point of attachment. NOTA = O=C(O)CN1CCN(CC(=O)O)CCN(CC(=O)*)CC1; Nle = CCCC[C@H](N)C(=O)O; AEEA = NCCOCCOCC(=O)O

Assay: in vivo
Design: species or system Sprague-Dawley rats
Conditions: rat; for SUV at 2 h / SUV at 5 min / SUV at 10 min / SUV at 40 min / SUV at 1 h / SUV at 0.5 h: Sprague-Dawley, iv, total radioactivity
Experimental: Sixteen male (n = 10; 363.3 ± 19.6 g) and female (n = 6; 199.2 ± 5.5 g) Sprague–Dawley rats were used for ex vivo organ distribution of the [^68Ga]Ga-NO2A-[Nle13]-Col for the subsequent extrapolation and calculation of human dosimetry. The male and female animals were administered into the tail vein with, respectively, 2.3 ± 0.8 MBq and 1.4 ± 0.5 MBq, sacrificed at 5, 10, 30, 40, 60, and 120 min post administration, and the organs were harvested, weighted, and measured for their radioactivity content. Samples from the blood, heart, lung, liver, spleen, adrenal glands, kidneys, intestines with or without contents, muscle, testis, bone, brain, pancreas, urine bladder, and bone marrow were collected. To monitor radioactivity elimination and recovery, the radioactivity of the remaining carcass was also measured. The radioactivity measurements were corrected for decay and converted into standardized uptake values (SUVs, Table S2) according to Equation (2), wherein the radioactivity is expressed in MBq and the weight in grams:(2) SUV=Radioactivityorgan∗weightrat/Radioactivityinjected∗weightorgan

[1] = male, SUV large intestine without content (INL-)
[2] = male, SUV small intestine with its content (INS+)

CCCC[C@@H]1NC(=O)[C@H](C(C)C)NC(=O)[C@H](CCCNC(=N)N)NC(=O)CNC(=O)[C@@H]2CCCN2C(=O)[C@@H](NC(=O)COCCOCCNC(=O)CN2CCN(CC(=O)O)CCN(CC(=O)O)CC2)CSSC[C@@H](C(=O)O)NC(=O)[C@@H]2CCCN2C(=O)CNC(=O)[C@H](CCC(=O)O)NC(=O)[C@H](CC(=O)O)NC(=O)[C@H](CC(=O)O)NC(=O)CNC(=O)[C@H](CC(C)C)NC(=O)[C@H](Cc2c[nH]cn2)NC(=O)[C@H](CC(C)C)NC(=O)CNC(=O)[C@H](Cc2c[nH]cn2)NC1=O [[^68Ga]Ga-NO2A-[Nle^13]-Col, [^68Ga]Ga-NOTA-PEG2-c[CPGRVNleHGLHLGDDEGPC], metal not drawn] ({NOTA-AEEA}-CPGRV[Nle]HGLHLGDDEGPC-OH; disulfide 1-18)
SUV at 2 h (female, SUV spleen (SP)): 0.066 SUV
SUV at 5 min (male, 2.3 MBq, SUV blood (BL)): 2.22 SUV
SUV at 10 min (male, 2.3 MBq, SUV blood (BL)): 1.53 SUV
SUV at 40 min (male, 2.3 MBq, SUV heart (HE)): 0.225 SUV
SUV at 1 h (male, 2.3 MBq, SUV heart (HE)): 0.123 SUV
SUV at 2 h (male, 2.3 MBq, SUV heart (HE)): 0.024 SUV
SUV at 5 min (male, 2.3 MBq, SUV liver (LI)): 0.478 SUV
SUV at 10 min (male, 2.3 MBq, SUV liver (LI)): 0.308 SUV
SUV at 0.5 h (male, 2.3 MBq, SUV liver (LI)): 0.193 SUV
SUV at 40 min (male, 2.3 MBq, SUV liver (LI)): 0.198 SUV
SUV at 1 h (male, 2.3 MBq, SUV liver (LI)): 0.112 SUV
SUV at 2 h (male, 2.3 MBq, SUV liver (LI)): 0.0624 SUV
SUV at 1 h (male, 2.3 MBq, SUV lungs (LU)): 0.217 SUV
SUV at 2 h (male, 2.3 MBq, SUV lungs (LU)): 0.0955 SUV
SUV at 5 min (male, SUV TE (testis)): 0.354 SUV
SUV at 10 min (male, SUV TE (testis)): 0.318 SUV
SUV at 0.5 h (male, SUV TE (testis)): 0.216 SUV
SUV at 40 min (male, SUV TE (testis)): 0.245 SUV
SUV at 1 h (male, SUV TE (testis)): 0.118 SUV
SUV at 2 h (male, SUV TE (testis)): 0.0322 SUV
SUV at 5 min (male, SUV adrenals (AD)): 0.82 SUV
SUV at 10 min (male, SUV adrenals (AD)): 0.549 SUV
SUV at 0.5 h (male, SUV adrenals (AD)): 0.464 SUV
SUV at 40 min (male, SUV adrenals (AD)): 0.284 SUV
SUV at 1 h (male, SUV adrenals (AD)): 0.494 SUV
SUV at 2 h (male, SUV adrenals (AD)): 0.249 SUV
SUV at 5 min (male, SUV bladder (UB)): 2.51 SUV
SUV at 10 min (male, SUV bladder (UB)): 3.13 SUV
SUV at 0.5 h (male, SUV bladder (UB)): 5.01 SUV
SUV at 40 min (male, SUV bladder (UB)): 2.8 SUV
SUV at 1 h (male, SUV bladder (UB)): 3.73 SUV
SUV at 2 h (male, SUV bladder (UB)): 0.896 SUV
SUV at 0.5 h (male, SUV blood (BL)): 0.8 SUV
SUV at 40 min (male, SUV blood (BL)): 0.624 SUV
SUV at 1 h (male, SUV blood (BL)): 0.316 SUV
SUV at 2 h (male, SUV blood (BL)): 0.052 SUV
SUV at 5 min (male, SUV bone (BO)): 0.12 SUV
SUV at 10 min (male, SUV bone (BO)): 0.243 SUV
SUV at 0.5 h (male, SUV bone (BO)): 0.143 SUV
SUV at 40 min (male, SUV bone (BO)): 0.127 SUV
SUV at 1 h (male, SUV bone (BO)): 0.2 SUV
SUV at 2 h (male, SUV bone (BO)): 0.0384 SUV
SUV at 5 min (male, SUV brain (BR)): 0.0955 SUV
SUV at 10 min (male, SUV brain (BR)): 0.0507 SUV
SUV at 0.5 h (male, SUV brain (BR)): 0.0346 SUV
SUV at 40 min (male, SUV brain (BR)): 0.0272 SUV
SUV at 1 h (male, SUV brain (BR)): 0.0268 SUV
SUV at 2 h (male, SUV brain (BR)): 0.0058 SUV
SUV at 5 min (male, SUV heart (HE)): 0.97 SUV
SUV at 10 min (male, SUV heart (HE)): 0.605 SUV
SUV at 0.5 h (male, SUV heart (HE)): 0.338 SUV
SUV at 5 min (male, SUV kidneys (KI)): 19.2 SUV
SUV at 10 min (male, SUV kidneys (KI)): 14.2 SUV
SUV at 0.5 h (male, SUV kidneys (KI)): 13.6 SUV
SUV at 40 min (male, SUV kidneys (KI)): 13.1 SUV
SUV at 1 h (male, SUV kidneys (KI)): 8.67 SUV
SUV at 2 h (male, SUV kidneys (KI)): 11.5 SUV
SUV at 5 min [1]: 1.01 SUV
SUV at 10 min [1]: 0.919 SUV
SUV at 0.5 h [1]: 0.476 SUV
SUV at 40 min [1]: 0.289 SUV
SUV at 1 h [1]: 0.243 SUV
SUV at 2 h [1]: 0.0668 SUV
SUV at 5 min (male, SUV lungs (LU)): 1.28 SUV
SUV at 10 min (male, SUV lungs (LU)): 1 SUV
SUV at 0.5 h (male, SUV lungs (LU)): 0.566 SUV
SUV at 40 min (male, SUV lungs (LU)): 0.563 SUV
SUV at 5 min (male, SUV muscle (MU)): 0.401 SUV
SUV at 10 min (male, SUV muscle (MU)): 0.507 SUV
SUV at 0.5 h (male, SUV muscle (MU)): 0.116 SUV
SUV at 40 min (male, SUV muscle (MU)): 0.104 SUV
SUV at 1 h (male, SUV muscle (MU)): 0.106 SUV
SUV at 2 h (male, SUV muscle (MU)): 0.0164 SUV
SUV at 5 min (male, SUV pancreas (PA)): 0.472 SUV
SUV at 10 min (male, SUV pancreas (PA)): 0.419 SUV
SUV at 0.5 h (male, SUV pancreas (PA)): 0.261 SUV
SUV at 40 min (male, SUV pancreas (PA)): 0.2 SUV
SUV at 1 h (male, SUV pancreas (PA)): 0.111 SUV
SUV at 2 h (male, SUV pancreas (PA)): 0.0272 SUV
SUV at 5 min (male, SUV red bone marrow (BM)): 0.584 SUV
SUV at 10 min (male, SUV red bone marrow (BM)): 0.543 SUV
SUV at 0.5 h (male, SUV red bone marrow (BM)): 0.262 SUV
SUV at 40 min (male, SUV red bone marrow (BM)): 1.01 SUV
SUV at 1 h (male, SUV red bone marrow (BM)): 1.15 SUV
SUV at 2 h (male, SUV red bone marrow (BM)): 0.154 SUV
SUV at 5 min [2]: 0.731 SUV
SUV at 10 min [2]: 0.5 SUV
SUV at 0.5 h [2]: 0.256 SUV
SUV at 40 min [2]: 0.412 SUV
SUV at 1 h [2]: 0.132 SUV
SUV at 2 h [2]: 0.0313 SUV
SUV at 5 min (male, SUV spleen (SP)): 0.541 SUV
SUV at 10 min (male, SUV spleen (SP)): 0.376 SUV
SUV at 0.5 h (male, SUV spleen (SP)): 0.241 SUV
SUV at 40 min (male, SUV spleen (SP)): 0.205 SUV
SUV at 1 h (male, SUV spleen (SP)): 0.126 SUV
SUV at 2 h (male, SUV spleen (SP)): 0.0652 SUV
decrease of kidney SUV: 40-50%
highest SUV (kidneys): around 12 SUV
